# Measured values from the supplement of paper PMC9732359.
# ± gives the uncertainty stated by the source.
# Assay: protein stability index of a GFP-peptide fusion (yeast GPS) (PSI 1-4); higher = more stable; sorted into four equal gates, so the index is relative within each strain
# Procedure, shortened: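 Mid-log yeast cultures in leucine-free medium, carrying a pooled plasmid library, were sorted into four equal gates by their GFP/Cherry fluorescence ratio. Each plasmid expressed Cherry along with GFP fused upstream of a tiled 17-residue yeast protein peptide. Plasmids recovered from each gate were PCR-amplified and Illumina-sequenced, with reads assigned to strains by barcodes. The protein stability index was obtained by summing each gate's read frequency weighted by its gate number.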
Sequence,protein stability index (doa10∆),protein stability index (pdr5∆),protein stability index (san1∆),protein stability index (ubr1∆)
ELCKKNESKIKELNEKI [RPN7],3.2 ± 0.12,2.73 ± 0.098,2.27 ± 0.11,2.47 ± 0.13
ISKNPSNGIFYGPSFTK [SIR2],2.94 ± 0.071,3.03 ± 0.054,2.76 ± 0.059,3.15 ± 0.039
MANTGCLSPGAFLSKVP [SRP14],2.56 ± 0.076,2.3 ± 0.091,2.74 ± 0.14,2.52 ± 0.061
DDVLQTIITDCAFLLTK [YJL039C/NUP192],1.76 ± 0.057,2.08 ± 0.062,1.79 ± 0.098,2.34 ± 0.047
HNGREGSIEEPELNVSL [MCD1],3.31 ± 0.3,3.5 ± 0.15,3.07 ± 0.12,3.37 ± 0.071
IQLQEFLLSAMTMASKS [NSL1],1.5 ± 0.058,1.83 ± 0.1,1.81 ± 0.09,1.93 ± 0.059
TIDNIDSENFSFEKLYE [YMR129W/POM152],3.3 ± 0.085,3.26 ± 0.076,3.33 ± 0.074,3.17 ± 0.047
EQFLETDSDFAKYHAKL [SRP68],2.83 ± 0.07,2.94 ± 0.067,2.79 ± 0.05,2.77 ± 0.089
YSSRVDSVTTETGKLLS [BRN1],2.38 ± 0.13,2.46 ± 0.14,2.34 ± 0.21,2.11 ± 0.18
TKLHSGDYGEEEDADQE [SRB8],2.5 ± 0.16,2.58 ± 0.12,,2.38 ± 0.2
LHIHLNQILQTEIENYL [YDL116W/NUP84],1.88 ± 0.054,2.15 ± 0.042,2.03 ± 0.075,1.86 ± 0.043
SPNRLRVRTDDSVLLNR [YML031W/NDC1],2.78 ± 0.22,3.25 ± 0.21,2.99 ± 0.14,
SKKRFAAIWTLCKTKMV [RPO21],1.75 ± 0.048,1.53 ± 0.049,1.24 ± 0.099,1.57 ± 0.032
TIVSNVEEKPGDRGALA [RPL2A],3.16 ± 0.095,3.1 ± 0.075,3.37 ± 0.058,3.4 ± 0.12
KLTRELEKKFPDRHVIF [RPS7B],2.75 ± 0.058,2.94 ± 0.049,2.99 ± 0.04,3.14 ± 0.033
ILRRQAILRQQQQMANN [GAL11],2.49 ± 0.15,3.02 ± 0.16,2.62 ± 0.18,2.65 ± 0.13
TICIELKTVLHNGRDKI [RGR1],1.55 ± 0.051,1.62 ± 0.062,1.78 ± 0.085,1.78 ± 0.067
FQIVIEPLAIALSMGKS [ARP7],1.42 ± 0.054,1.71 ± 0.059,1.52 ± 0.092,1.5 ± 0.07
PTAKDVEVIKQLSLDAS [GAL11],3.08 ± 0.13,2 ± 0.07,1.82 ± 0.1,2.28 ± 0.073
SDLRVLSGSISERIVDC [FAS1],2.95 ± 0.14,3.45 ± 0.15,3.41 ± 0.087,3.26 ± 0.098
LASKAARKSAPSTGGVK [HHT1],2.89 ± 0.15,3.12 ± 0.12,2.99 ± 0.076,3.05 ± 0.1
INKLMEKDFQVNKEIKP [SIR4],3.4 ± 0.083,3.31 ± 0.069,3.16 ± 0.069,3.31 ± 0.057
RVGGGGTGRSGQGAFGN [RPL4A],3.54 ± 0.13,3.52 ± 0.11,3.54 ± 0.066,3.34 ± 0.1
PNLATFISSGTSLLDSL [YJL039C/NUP192],2.23 ± 0.047,2.6 ± 0.046,2.23 ± 0.057,2.1 ± 0.037
HELREKERISVAAASKI [PRE2],2.67 ± 0.061,2.77 ± 0.049,2.79 ± 0.062,2.22 ± 0.03
IQNDEEYDTPALFFDPS [PRP8],2.76 ± 0.073,3.05 ± 0.056,2.73 ± 0.085,2.86 ± 0.071

Sequence,protein stability index (doa10∆),protein stability index (pdr5∆),protein stability index (san1∆),protein stability index (ubr1∆)
QASGITAGAAANALGGL [SSN3],2.56 ± 0.071,1.91 ± 0.068,2.13 ± 0.093,2.02 ± 0.058
KKCLKLAYENKITDKED [POP4],2.698 ± 0.022,2.785 ± 0.027,2.797 ± 0.02,3.032 ± 0.025
PQNMLFEGCYYTPEESA [RPC25],,2.42 ± 0.21,2.55 ± 0.21,2.5 ± 0.12
LDSDSENDLSFALMRYY [RRI2],2.8 ± 0.068,2.89 ± 0.063,2.85 ± 0.057,2.91 ± 0.047
SKSAFSFGSKPTGKEEG [YJL041W/NSP1],3.26 ± 0.058,3.34 ± 0.052,3.36 ± 0.069,3.16 ± 0.067
NVESAGAMTPEEIFFKS [RPC40],3.04 ± 0.074,3.31 ± 0.085,3.17 ± 0.054,3.27 ± 0.045
HELSSSHTSLVKIGKFI [SRB8],1.8 ± 0.042,2.61 ± 0.033,1.84 ± 0.079,1.63 ± 0.052
KKRMNSNQERCHDEGND [RRI1],3.24 ± 0.064,3.01 ± 0.068,3.06 ± 0.071,3.13 ± 0.061
AMDLAQMLIQGVWDVDN [BRR2],2.85 ± 0.064,2.78 ± 0.067,2.18 ± 0.058,2.12 ± 0.052
QEFDSELSKEEKERLES [SMC3],2.97 ± 0.12,2.96 ± 0.16,2.98 ± 0.058,3.06 ± 0.081
HQHIGKASTISRGAVSG [RPL2A],2.55 ± 0.043,2.39 ± 0.059,2.83 ± 0.055,3.12 ± 0.05
MTTVSGRDAFHLRVRVH [RPL10],1.33 ± 0.16,,,
FCRDCNNMLYPREDKEN [RPB9],3.11 ± 0.083,3.11 ± 0.076,2.9 ± 0.064,3.08 ± 0.061
KFFIMIVKGNIIDEIKC [POP4],1.32 ± 0.055,1.47 ± 0.055,1.49 ± 0.094,1.66 ± 0.056
ISLLALPHSPLWELALA [YML031W/NDC1],1.35 ± 0.086,1.49 ± 0.061,1.34 ± 0.11,1.7 ± 0.042
LERVKRIMEKSVILSVI [YML031W/NDC1],2.71 ± 0.086,2.17 ± 0.094,1.98 ± 0.096,1.61 ± 0.049
VTEDGSIVTVVSSAKFS [RPL22B],2.79 ± 0.1,3 ± 0.12,2.99 ± 0.1,2.87 ± 0.087
ITKVPALEFLNTTLQDN [REC8],2.77 ± 0.08,2.7 ± 0.15,2.98 ± 0.12,2.71 ± 0.084
NSQTVSGTPITQTESKK [SNF2],2.67 ± 0.05,2.27 ± 0.05,2.7 ± 0.053,2.39 ± 0.039
AQQLRNQQQQQQQQQQQ [GAL11],2.98 ± 0.095,2.92 ± 0.11,2.92 ± 0.094,3.04 ± 0.065
EILTSVDVLGTHSQTGT [SIR4],2.93 ± 0.069,2.76 ± 0.063,2.87 ± 0.067,3.07 ± 0.037
VRCKDCGHRILLKARTK [RPC10],2.55 ± 0.12,2.64 ± 0.11,2.56 ± 0.1,2.87 ± 0.072
WTRGTGLMSANNIIAEG [FAS2],2.98 ± 0.096,2.85 ± 0.086,3.06 ± 0.093,
LSKEVPFSYLIDETMMD [SRB5],2.03 ± 0.12,2.36 ± 0.066,2.22 ± 0.13,2.55 ± 0.048
ELTKEEAMYKLQLASLQ [SMC3],2.89 ± 0.1,2.88 ± 0.068,2.55 ± 0.084,2.64 ± 0.053
LMEKNRIRKLTGQNFLT [REC8],1.36 ± 0.044,1.37 ± 0.038,1.65 ± 0.077,1.33 ± 0.041

Sequence,protein stability index (doa10∆),protein stability index (pdr5∆),protein stability index (san1∆),protein stability index (ubr1∆)
PKEEEPILAPSVKDYRP [RPS3],2.8 ± 0.059,2.86 ± 0.079,3.04 ± 0.052,2.65 ± 0.054
EILGTAQSVGCRVDFKN [RPL12A],2.12 ± 0.06,2.25 ± 0.06,2.46 ± 0.11,2.94 ± 0.055
MSSQISSLIPHCITSIT [MTR3],1.77 ± 0.061,2.08 ± 0.061,2.07 ± 0.073,2.47 ± 0.075
LYFPDDYPFTQLGYIEN [POP1],2.71 ± 0.12,3.18 ± 0.074,3.1 ± 0.071,3.16 ± 0.068
HHRDSNFPDEDDDDSRK [SKP1],3 ± 0.18,3.55 ± 0.17,3.07 ± 0.14,3.5 ± 0.18
HDWLNALDGDLIELLEK [YCG1],,3.32 ± 0.2,2.75 ± 0.24,3.55 ± 0.11
LNKLYGGAKSRGVRPYK [RPS19A],3.34 ± 0.14,3.3 ± 0.18,3.09 ± 0.061,
QQQVLNKLRQQAIAKNN [SNF5],1.13 ± 0.066,1.2 ± 0.072,1.11 ± 0.13,1.05 ± 0.052
RMTIRTRGRSATIRETY [RRP43],2.96 ± 0.057,2.64 ± 0.061,2.67 ± 0.062,2.2 ± 0.049
MDCTKEEEATMTTSAVS [YIL149C/MLP2],3.35 ± 0.08,3.24 ± 0.065,3.28 ± 0.06,3.12 ± 0.059
SPEQIDASPDSLEALID [YCS4],2.92 ± 0.054,2.88 ± 0.049,2.94 ± 0.044,3.05 ± 0.041
VRSGVSKSAPSKKISNT [YAR002W/NUP60],3.28 ± 0.085,3.25 ± 0.088,3.26 ± 0.049,3.38 ± 0.056
MLMPKEDRNKIHQYLFQ [RPS10A],2.27 ± 0.057,2.58 ± 0.057,2.49 ± 0.079,2.71 ± 0.047
ITLALSSNPNSSLHSPT [SRB4],2.9 ± 0.067,2.99 ± 0.055,2.91 ± 0.047,3.05 ± 0.044
YDRQLSSLFLDGLEKAA [FAS2],2.96 ± 0.084,2.93 ± 0.074,2.79 ± 0.095,2.95 ± 0.079
DDEGSFAQENSELAVAT [SRB6],3.08 ± 0.065,3.25 ± 0.075,3.08 ± 0.054,3.3 ± 0.054
QSQPIANQSATSTPPPP [SNF5],2.82 ± 0.044,2.66 ± 0.037,2.61 ± 0.038,2.63 ± 0.034
PKDSSSTFREWKNLVLK [YJR042W/NUP85],3.29 ± 0.11,2.76 ± 0.12,3 ± 0.065,3.16 ± 0.088
LKWKKGIRGKLVTIEGA [SMC1],,3.31 ± 0.24,3.31 ± 0.12,
MDPQTLITKANKVSYYG [RTT102],1.85 ± 0.047,1.73 ± 0.042,1.71 ± 0.12,1.87 ± 0.052
LQRHSGISSTLVSANND [YLR018C/POM34],2.7 ± 0.052,2.87 ± 0.064,2.96 ± 0.062,2.94 ± 0.07
SVNIAFAISMGYLFKVS [ECM29],2.21 ± 0.14,2.84 ± 0.13,2.83 ± 0.093,3.22 ± 0.13
KCNDGVVFAVEKLITSK [PRE10],,,2.87 ± 0.22,
QYNIPPEREVLVRELYQ [RRP6],2.52 ± 0.061,2.15 ± 0.089,2.37 ± 0.14,2.17 ± 0.083
QNDQWSIQMEFMLRKQD [SSN2],2.53 ± 0.071,2.58 ± 0.088,2.4 ± 0.12,2.81 ± 0.074
LGKLQDVFNLLPNLGTP [RPN8],3.06 ± 0.12,3.29 ± 0.089,2.43 ± 0.085,2.82 ± 0.081
